Source: the DeepSol protein solubility set

Experiment: soluble on expression in E. coli; label from the status in PepcDB or PDB records

Sequence | soluble on expression in E. coli
MGGMLRRLEVQNLAVIREAALDFAPGLNVLTGETGAGKSLLVDALALLLGGRAEGLIGPYGESLLVTAFFEGPPGEAVLSRRVGARSTPRVDGEVVTLKELQAEAERRLSLHAQHTALALLSPRRQREALDALLPEGLLAAYQEAYARREALLKEKAALEESLKARAEREDLLRYQIREIEEARVRPGEEEELLALAERLRHLETIRERLARALALLTEREAQDLLALAAKEVRAAARHDPALEALAEELSGAAEAVRAVARELEDHLEGLDLDPEELDRVEARLSLLERLKRKYGPTLADVLAHAQKAREELARMEGGEERLSEVERLLKALHEEVEARGQALRRAREEAARRLTEGMVRELPALGLAGARFAVVLEPLPEPGPQGLEAVAFRVAPNPNLPPAPLEALSGGELSRVALALALLTGTEAPTVVFDEVDAGVGGETAWRLAERLKRLAERRQVLVVTHLPQVAAVAQRHFRVTKTPEGVRVEPLAGEARVKEIARLLSGAYTQAALAHARELLEAQGAL | soluble
MAMWVFGYGSLIWKTGFPFDESLPGFIKGYRRVFHQGSTDHRGTPDFPGRTVTLEAAHEEHLEVREKQYDQKEYLDFFTDSNASEPAVAGVMVYIASPDKKSNNNYLGPAPLEDIAKQIVKAKGPSGPNRDYLFNLEEALAQLGFKDKHVTDLANQVRHILSESEELDIDATAATANNV | soluble
CEEPPTFEAMELIGKPKPYYEIGERVDYKCKKGYFYIPPLATHTICDRNHTWLPVSDDACYRETCPYIRDPLNGQAVPANGTYEFGYQMHFICNEGYYLIGEEILYCELKGSVAIWSGKPPICEKV | soluble
MHSEVTPIHHYKKYWAECFGTAPFLPTSREEMDQLGWDSCDVIIVTGDAYVDHPSFGMAIIGRLLEAQGFRVGIIAQPEWQTKDAFMTLGKPNLFFGVTAGNMDSMINRYTADKKIRHDDAYTPNNKGGMRPDRCSLVYSQRCREAYKDVPIVLGGIEASLRRVAHYDYWSDKVRRSILLDAKADILLFGNAERALVEVAHRLANGESINKMVDIRGTAVNLAQVPEHFKIIDSTRIDQPNKPFVPSNPYEVETQCATKGDEKEEAQPITIRPSRHDAKTTAVRLPSFEKLVNDRILYAHASRVLHLETNPYSGRALVQRHGDRELWVNQAPIPLTTEEMDFVFGLYYARVPHPKYGDAKIPAYDMIKTS | soluble
VTVSTSTARSADDSDHSSEVARPTDSRRDPEVLREALQRWLAAQLPPDAAPEVTHVHLPDANGMSSETILFDATWSGEVHPLVARVAPADTTMPVFPEYDLDGQFQVMAQVREHSAVPVPVVYWSESDPGPLGAPFFVMARVSGQVPPDVMPYNFGSWVTEATEEQRALLQHSAVNVLAQLHDIDRPWERFAFLQLPGSGPTVTEALAAHIRQQRDYYEWTTLSGPRSPLIERGFAWMEDNLPDDPSPAVFCWGDARIGNMMFEDFRPVAVLDWEMATLGPRELDLGWMTYLHRFFEDIAASAGLDGMPDFLRLDDLAALYEELTGHTPRDLEYYTAYAALRQATIMLRIQERAIHFGQAVAPEDPDDMIMHRASLEAMLDGTYWEKIR | not soluble
MNVTVAPQDETLSARAGRVATIAAKHADDVDVTGRFPQEAVDALRRERLLGIQVPSSLGGEGASIQEIADICARLGQACSATAMIFAMHHIKLSSLVEHGVDSTWHPGFMRRVAGEQLLLGSATTEGGIGGNLRNSICAIEVEGDSCRLEKDATVISYGSNADAILITSRAHKDAAPADQVMTVFLKNQYTLEKTHVWDTLGMRGTCSDGFLFRGEAPAAQIFPKPFAEIAAQSMLASSHLLWSAVWYGIASDAVLRAQSFVRAAARKSPGTAPPGAIRLAEVSTKLQVVKSNIIAGIKAYEDTKSDPEKLMSMAFAVAMNNVKICSSETILEIIDHAMLVCGIMGYKNGTPYSLGRHLRDAHSARLMISNDRILGNSANLLLVHRQDTSLLG | soluble
MGSDKIHHHHHHMLTCNGSKTFQTFIKAVTDLINSNLLEDQMVCGIEKLLEELLEKKTWLPLEKQKANSAQYARHLLYEDPLNRFEVLALVWKDGQSTPLHDHDGTWGVEGVFTGRIMVQNFIQTKQLENSLVYLTHTGNLYLGEGETDKVIPPADCHILEIDDNESVVTIHVYGKRLEKFKVYVPTKEKNVYTCETKYIRYNS | not soluble
MMMDLNIRRVVLDVDKGLNRPTLVELAAAIEKVQGVEAVNIIVTEMDMETMGTNITVEGTNINYDELIETIENTGSAIHSVDEIAVGKRLIENVRR | not soluble
MSLANNKISQTTKKLSQIFNSEKQPAVFFDKNVSTIEENNSLLDGQTDVPVLDPHDLLVEVQAVSVNPVDTKLRQTGVASKIKILGYDAFGIVKNTGKDVTRFHAGDRVYYAGTTQRPGSNEKFQAVDERLVGRAPEKLNKSEIAAMPLTSITAYEILVDQLGLRFQNHAADGKNMLVINGAGGVGSVLLQMAAYLGINLSVTAHSSESIEWLKKYSVDKIYDYENIDETLADQKFDYIVFLYDPALYWDIAIKHIKPYGQLVSIVGTNKPLNMGPLKNIAVQFKWEYMFAKSDFNHNILSQGQALDKIAILLDAGILKTTLNKTFDLINAENLRQAYKLVESGRMQGKVVLNGEGHHHHHH | not soluble
MSYYHHHHHHLESTSLYKKAGFMADQLTPHLEIPTAIKPRDGRFGSGPSKVRLEQLQTLTTTAAALFGTSHRQAPVKNLVGRVRSGLAELFSLPDGYEVILGNGGATAFWDAAAFGLIDKRSLHLTYGEFSAKFASAVSKNPFVGEPIIITSDPGSAPEPQTDPSVDVIAWAHNETSTGVAVAVRRPEGSDDALVVIDATSGAGGLPVDIAETDAYYFAPQKNFASDGGLWLAIMSPAALSRIEAIAATGRWVPDFLSLPIAVENSLKNQTYNTPAIATLALLAEQIDWLVGNGGLDWAVKRTADSSQRLYSWAQERPYTTPFVTDPGLRSQVVGTIDFVDDVDAGTVAKILRANGIVDTEPYRKLGRNQLRVAMFPAVEPDDVSALTECVDWVVERL | soluble
MGSDKIHHHHHHMNPDFSYEKKKIEFSSGYIFKGKHYRCSIIKYASLYKNCTKGTENVEIYHFSPRERSVGSILILHGLGTVNIPFLFWMGSHLASAGLQASVMILPGNYTRTASGSTSGKDFFSPDLRRLTAFWEQAVVDTMTTIDLLQQENIWWDNNCLFGYCLGGMVSTIVSAIDKRINDLILMTVGGNIAKIIWQSPVLKSIRLSLRSGSGEEGYLNDEKRLNARFKEDSLAVKKMKSASELLESDLHPLFKIDPLAYARFNDSEKVTMIEALFDKALPVQTRKQLWEAFGRPKRYIVPIGHVSWFPFEYALGKYILKKLGIKEARKKMRLLESTKPTE | not soluble
MAVTTTSESAAEFKEKNVSPVKVEFINAPEKDPGLNVEWQIQGTGYNNEGSGSVIYVRMKNLNDVAIPADAFDDPVLTINGTEASRVEAGTVDLDLPLGPGATTNLQFAFGTGYGSLSDAKLVLGNCIFEGNLSNI | not soluble
MCLVDFGLRFNHKGRHYFKAANGEDIALSLSIGAAMFNGHPDYERLIQIADEALYIAKRRGRNRVELCKASL | not soluble
MAIGFICSSPDAELFSEKSRMSSSVLLGCLLCCMDWSAAVPGKTEPFRKLFDAIMIKKLKSCSAAYPSDLDEGSMCDMADASPTSLELGLSKLDKES | not soluble
MMIVKRFILGEYSTNTYLVVSGDEGILIDVAENPSEVIDYILTNNIKLKSIYATHGHFDHVLGVTEVKKYFNVPFFLHRSDLDLLRRDERTKGIVPDGFIDEKSIIKIGNEELKVIETPGHTMGSVCYIFDDGIFTGDTLFNGSIGRYDLGGDKNLLKKSLNRLMELNDGLTVYPGHGFFTTLGYEKLTNPFLNGEFEW | soluble
MGSDKIHHHHHHMTALDKTGLKILNFQQLLNQLTAKTQELFGDDVNTDQNSALGMYIRVISWLQNIVNQDLEAVYYSSFVDQAEGVSLDRLGSNYSVTRNPAQAATVMLDFTGTTGTVIPEETVYTTESGVEFEMVDTVTLDDSGKGSGEAVCTALDETGNVAPNTISVQGENIAGIESVTNPTQASGGTEIETDDAYRQRIHLSMESQPGPTYYGLYTGLYALPGVEQVQIVPNLTMETDSYGNPPKSLHFYVRGGREDDVAQAILDNIAAGIQTVGKIKEAVKDIGGHTHDVFFDTATVVPIYVNMSLKTSDDFNSETSPVEIVQAIKDYLSGLIMGDKVVFTKLYQAIYNISGVEYAQVTLGRDKSAMGMADIQLDQFETAVVANDSDVEVTVDDG | not soluble
